# Reference: patent US20260176377A1 (Hoffmann-La Roche, published 2026)
# Target: T1, extracellular domain (ECD) of human IL-7Rα fused to biotinylated Fc knob-into-hole (P1AI1009) (human, UniProt P0DOX5 223-448 = IgG part, biotinylated at C-terminal AviTag)
# T1 construct: also called human IL-7Rα-Fc; human IL-7Rα antigen
# Experiment: ELISA, soluble VHH supernatants on neutravidin plates with biotinylated IL-7Rα-Fc versus biotinylated Fc, anti-His-HRP
# Method: Round 3 and round 4 enrichment libraries were screened for target specificity vs Fc specificity by ELISA. Individual VHH clones were expressed in 1 ml E. coli cultures in a 96-well plate and supernatants containing soluble VHH were screened for specificity by ELISA. Supernatants were transferred to neutravidin 96-well plates coated with biotinylated Fc (P1AE6073) or target Fc-tagged biotinylated antigen (P1AI1009). Following incubation for 1 hour at 20° C., plates were washed 3 times with PBST and 3 times with PBS. HRP-conjugated anti-His antibody (Sigma, Cat. No: A7058) was added to wells at 1:2000 dilution and plates were incubated for 1 hour at 20° C. Plates were washed 3 times with PBST followed by 3 washes with PBS. Plates were developed by adding 1-Step Ultra TMB-ELISA substrate (Thermo Fisher Scientific, Cat. No: 34028) and reactions were quenched with sulfuric acid. Absorbance at 450 nm was measured using a Tecan infinite M1000 Pro and reference absorbance values were measured at 650 nm. Reference-subtracted absorbance values at 450 nm were represented as stacked bar charts for round 3 library 1 and library 2 (FIG. 40A and B, respectively) and round 4 library 1 and library 2 (FIG. 40C and D, respectively). […] 16 target-specific VHH were selected and subsequently cloned into bispecific heavy chain antibody formats.
row,binding result,Binder
1,binds,"IL-7Rα_1 VHH (VHH, soluble VHH, detected with anti-His antibody) VHH: QVQLVESGGGLVQPGGSLRLSCAASGFTFSQRIMSWYRQAPGKERELVASISPFGDGTRYADSVKGRFTISRDNARNQLYLQMNTLKPEDTAVYYCNKRNLEISDDWGQGTQVTVSS"
2,binds,"IL-7Rα_5 VHH (VHH, soluble VHH, detected with anti-His antibody) VHH: QVQLVESGGGLVQPGGSLRLSCAASGFTFSQRIMSWYRQAPGKEHELVASISPFGDGTRYADSVKGRFTISRDNARNQLYLQMNSLEFEDTAVYYCNKRNLDVSDDWGQGTQVTVSS"
3,binds,"IL-7Rα_14 VHH (VHH, soluble VHH, detected with anti-His antibody) VHH: QVQLVESGGGLVQPGGSLRLSCAASGFTFSQRIMSWYRQAPGKERELVASVSPFGDGTRYADSVKGRFTISRDNAKSQLYLQMNNLKFEDTAVYYCNKRNLEISDAWGQGTQVTVSS"
4,binds,"IL-7Rα_7 VHH (VHH, soluble VHH, detected with anti-His antibody) VHH: QVQLVESGGGLVQPGGSLRLSCAASGFTFSNYAMSWYRQAPGKERELVASISVFGGGTNYADSVKGRFTISRDNAKNTVYLQMNSLKPEDSAVYYCNKRRYDDYWGQGTQVTVSS"
5,binds,"IL-7Rα_2 VHH (VHH, soluble VHH, detected with anti-His antibody) VHH: QVQLVESGGGLVQPGGSLRLSCEVSGIRFSLRNMHWYRQASGRQREWVATITAGGVTGYRDSVKGRFTISRDNAKNTVDLQMNGLQLEDTAVYYCNHGDTAYWGQGTQVTVSS"
6,binds,"IL-7Rα_13 VHH (VHH, soluble VHH, detected with anti-His antibody) VHH: QVQLVESGGGLVRPGGSLRLACAASGIRFSLRNMHWYRQASGRQREWVATITAGGVTGYRDSVKGRFTISRDNAKNTVDLQMNGLQLEDTAVYYCNHGDTAYWGQGTQVTVSS"
7,binds,"IL-7Rα_4 VHH (VHH, soluble VHH, detected with anti-His antibody) VHH: QVQLVESGGGLVQPGGSLRLSCTTSGFTFTTYAMKWVRQAPGKGLEWVAFISPAGGITDYADSVKGRFTISRDNAKETLYLRMDSLKPEDTAVYYCARGDSDTNNNRGQGTQVTVSS"
8,binds,"IL-7Rα_8 VHH (VHH, soluble VHH, detected with anti-His antibody) VHH: QVQLVESGGGLVQPGGSLRLSCAASGFTISSWSMKWVRQAPGKGPEWVSYISPGGGSLDYLDSVKGRFTISRDNAKNTVYLQMSNLKSEDTALYWCATGTGPTRGQGTQVTVSS"
9,binds,"IL-7Rα_11 VHH (VHH, soluble VHH, detected with anti-His antibody) VHH: QVQLVESGGGLVQPGGSLRLSCEASGFTISSWSMKWVRQAPGKGPEWVSYISPGGGSLDYHHSVKGRFTISRDNARNTVYLQMSNLQSEDTALYWCATGTGETRGQGTQVTVSS"
10,binds,"IL-7Rα_9 VHH (VHH, soluble VHH, detected with anti-His antibody) VHH: QVQLVESGGGLVQPGGSLRLSCAASGFTISTWSMKWVRQAPGKGPEWVSYISPGGTSLDYQDSVKGRFTISRDNAKNTVYLQMNNLKSEDTALYWCATGTGETRGQGTQVTVSS"
11,binds,"IL-7Rα_12 VHH (VHH, soluble VHH, detected with anti-His antibody) VHH: QVQLVESGGGLVQPGGSLRLSCAASGFTISSRSMKWVRQAPGKGPEWVSYISPGGGTVDYQDSVKGRFTISRDNAKNTVYLQMSNLKSEDTALYWCATGTGPTRGRGTQVTVSS"
12,binds,"IL-7Rα_15 VHH (VHH, soluble VHH, detected with anti-His antibody) VHH: QVQLVESGGGLVQPGGSLRLSCAASGFTISSWSMKWVRQAPGKGPEWVSYISPGGGSLDYHHSVKGRFTISRDNARNTVYLQMSNLQSEDTALYWCATGTGETRGQGTQVTVSS"
